± gives the uncertainty stated by the source.

Sequences and labels used below:
B1: Formin-binding protein 4, residues 593 to 636; numbered along this chain, Q8N3X1 (parent)
chain: EINATPKGWSCHWDRDHRRYFYVNEQSGESQWEFPDGEEEEEES
B2: Serine/threonine-protein kinase A-Raf, residues 21 to 89; numbered along this chain, P10398 (parent)
chain: VKVYLPNKQRTVVTVRDGMSVYDSLDKALKVRGLNQDCCVVYRLIKGRKTVTAWDTAIAPLDGEELIVE

In one data set the parent is B1. Nature of the data set: abundance fitness (aPCA) (normalised: wild type 0, dead -1); higher = more abundant; growth selection in yeast, the domain comes from the species named. As to conditions: Homo sapiens.
On to G28M, for which the abundance fitness was -0.611 ± 0.13.
As to G28S, the abundance fitness is -0.553 ± 0.075.
On to E39I, for which the abundance fitness was -0.074 ± 0.2.
Same read-out and setting: with Y20V the figure was -0.206 ± 0.068; with K7R, -0.074 ± 0.1; with K7H, 0.125 ± 0.48.
On to H17E, for which the abundance fitness amounted to 0.088 ± 0.079.
For Y22T, the abundance fitness is -0.402 ± 0.12.
Same read-out and setting: to E38M belongs 0.058 ± 0.087; to E38V, 0.008 ± 0.084; to E41Q, 0.056 ± 0.091.
In the case of E41R, the abundance fitness was determined as 0.007 ± 0.059.
For the variant E41C, the abundance fitness is 0.016 ± 0.084.
Same read-out and setting: to W32L belongs -0.002 ± 0.07.
Regarding W32Y, the abundance fitness is -0.169 ± 0.12.
Regarding W32G, the abundance fitness was -0.28 ± 0.061.
For W32H, the abundance fitness is -0.157 ± 0.25.
Consider E40M, for which the abundance fitness is -0.127 ± 0.084.
The same measure, in the same setting: to R15I belongs 0.373 ± 0.23; to R15K, 0.14 ± 0.11; to R15F, -0.188 ± 0.21.
On the same count and under the same terms, to P35L belongs -0.801 ± 0.076; to W9S, -0.368 ± 0.074; to W9V, -0.629 ± 0.1.
Consider F34D, for which the abundance fitness was -0.222 ± 0.1.
Same read-out and setting: to F34H belongs -0.011 ± 0.11; to W13R, -0.738 ± 0.065.
In the case of S10L, the abundance fitness is -0.345 ± 0.12.
In the case of N3E, the abundance fitness was 0.185 ± 0.15.
As for N3D, the abundance fitness was 0.157 ± 0.34.
For the variant F21K, the abundance fitness was -0.067 ± 0.11.
The same measure, in the same setting: to F21L belongs -0.051 ± 0.083; to T5W, -0.19 ± 0.15.
Consider T5F, for which the abundance fitness was -0.306 ± 0.17.
Consider S44L, for which the abundance fitness is -0.194 ± 0.12.
Consider E33R, for which the abundance fitness was -0.241 ± 0.055.
For S30H, the abundance fitness was -0.354 ± 0.17.
With S30P, the abundance fitness is -0.174 ± 0.083.
With S30T, the abundance fitness is 0.067 ± 0.083.
Regarding R19Q, the abundance fitness is -0.092 ± 0.11.
As to R19T, the abundance fitness was -0.621 ± 0.2.
Same read-out and setting: to R19C belongs -0.207 ± 0.3; to A4P, 0.086 ± 0.29; to A4G, 0.033 ± 0.073.
For the variant A4M, the abundance fitness is 0.036 ± 0.12.
Same read-out and setting: to A4S belongs -0.306 ± 0.18; to A4V, -0.132 ± 0.096.
For R18W, the abundance fitness is -0.571 ± 0.081.
For E1N, the abundance fitness is -0.304 ± 0.34.
Q31E: the abundance fitness is -0.707 ± 0.081.
Take D36E: the abundance fitness was -0.113 ± 0.085.
On to D36R, for which the abundance fitness was -0.012 ± 0.062.
The same measure, in the same setting: with Q26P the figure was -1.06 ± 0.24; with E29T, -0.269 ± 0.3.
For the variant E29Q, the abundance fitness is -0.027 ± 0.079.
Still for that read-out and setting: with G37E the figure was -0.095 ± 0.084; with G37S, -0.112 ± 0.07.
For the variant N24G, the abundance fitness was -0.611 ± 0.059.

The next data set covers variants of B2. The data set is described as above. As to conditions: Homo sapiens.
With E69N, the abundance fitness was -0.777 ± 0.21.
As for V15Q, the abundance fitness is -0.686 ± 0.15.
Turning to R43K, the abundance fitness is -0.205 ± 0.083.
As for R43I, the abundance fitness is -1 ± 0.37.
Turning to R43P, the abundance fitness was -0.822 ± 0.33.
R43C: the abundance fitness was -0.742 ± 0.15.
On the same count and under the same terms, to L44Q belongs -0.307 ± 0.1; to L44T, -0.169 ± 0.082.
On the same count and under the same terms, to L44D belongs -0.65 ± 0.45.
Consider E65V, for which the abundance fitness was -0.077 ± 0.063.
In the case of E65L, the abundance fitness is -0.349 ± 0.1.
Same read-out and setting: to C38F belongs -0.136 ± 0.097; to K8Y, -0.231 ± 0.18; to K8N, 0.132 ± 0.073.
On to K8H, for which the abundance fitness was -0.102 ± 0.11.
Same read-out and setting: to Y22D belongs -0.83 ± 0.25.
Turning to Y22K, the abundance fitness amounted to 0.012 ± 0.062.
Take T14G: the abundance fitness is -0.295 ± 0.042.
Take G18H: the abundance fitness is -0.244 ± 0.13.
Turning to R10S, the abundance fitness was 0.177 ± 0.052.
The same measure, in the same setting: to R10W belongs 0.067 ± 0.048; to R10C, 0.025 ± 0.077; to R10F, 0.147 ± 0.11.
Same read-out and setting: with V3I the figure was -0.298 ± 0.16; with V3S, -0.856 ± 0.09; with L5P, -0.778 ± 0.18.
The same measure, in the same setting: with L5C the figure was -0.784 ± 0.14.
On to R16C, for which the abundance fitness was -0.028 ± 0.1.
The same measure, in the same setting: to V13W belongs -0.856 ± 0.095; to V13E, -0.857 ± 0.3; to V13P, -0.772 ± 0.15.
On the same count and under the same terms, to A59N belongs -0.366 ± 0.21; to R32G, -0.298 ± 0.053; to R32A, 0.088 ± 0.063.
Turning to S20A, the abundance fitness was -0.808 ± 0.14.
With S20W, the abundance fitness was -0.847 ± 0.14.
For the variant S20M, the abundance fitness was -0.832 ± 0.3.
Turning to S20G, the abundance fitness is -0.94 ± 0.13.
On to S20C, for which the abundance fitness is -0.31 ± 0.12.
Take V21G: the abundance fitness was -1.04 ± 0.18.
Still for that read-out and setting: to V21W belongs -0.602 ± 0.092; to K46R, -0.024 ± 0.034; to S24Y, -0.487 ± 0.34.
For K49H, the abundance fitness was -0.551 ± 0.14.
Regarding K49Q, the abundance fitness is -0.566 ± 0.13.
On the same count and under the same terms, to K49T belongs -0.968 ± 0.19.
Consider K49E, for which the abundance fitness was -0.847 ± 0.2.
Take K49D: the abundance fitness is -0.804 ± 0.28.
As for K2L, the abundance fitness is -0.349 ± 0.09.
In the case of K2R, the abundance fitness stood at 0.038 ± 0.057.
On to E64N, for which the abundance fitness is -0.026 ± 0.35.
As for E64S, the abundance fitness is -0.112 ± 0.08.
Take V1I: the abundance fitness is -0.096 ± 0.18.
Turning to G47N, the abundance fitness was -0.665 ± 0.27.
The same measure, in the same setting: to G47D belongs -0.71 ± 0.21.
Consider G47L, for which the abundance fitness was -0.873 ± 0.091.
As to D26C, the abundance fitness amounted to 0.063 ± 0.099.
As for D26L, the abundance fitness was -0.137 ± 0.053.
As for D26I, the abundance fitness was -0.146 ± 0.09.
For the variant D26S, the abundance fitness is -0.113 ± 0.069.
As for D37W, the abundance fitness is -0.838 ± 0.31.
D37S: the abundance fitness was -0.196 ± 0.079.
As to D37N, the abundance fitness is -0.186 ± 0.15.
On the same count and under the same terms, to I58C belongs -0.001 ± 0.083; to I58V, -0.185 ± 0.049; to V41M, -0.711 ± 0.16.
For V41N, the abundance fitness is -0.836 ± 0.31.
Still for that read-out and setting: with V41I the figure was -0.507 ± 0.17.
Consider N7E, for which the abundance fitness was -0.17 ± 0.036.
Consider N7S, for which the abundance fitness is -0.321 ± 0.042.
For the variant N7K, the abundance fitness was -0.343 ± 0.055.
Regarding N7F, the abundance fitness was -0.49 ± 0.055.
On to T56A, for which the abundance fitness is 0.021 ± 0.047.
Regarding T56S, the abundance fitness is -0.009 ± 0.038.
As for D62L, the abundance fitness was -0.078 ± 0.054.
Turning to W54D, the abundance fitness was -0.743 ± 0.33.
W54N: the abundance fitness is -0.917 ± 0.24.
The same measure, in the same setting: with Y4S the figure was -0.022 ± 0.047; with Y4I, -0.001 ± 0.15.
In the case of R48S, the abundance fitness was -0.288 ± 0.069.
Take Q9C: the abundance fitness was -0.479 ± 0.12.
In the case of L25G, the abundance fitness was -0.697 ± 0.1.
L25Q: the abundance fitness was -0.961 ± 0.17.
Still for that read-out and setting: with G33K the figure was -0.41 ± 0.16; with G33A, -0.546 ± 0.12.
On the same count and under the same terms, to D55Y belongs -0.648 ± 0.15; to D55L, -0.908 ± 0.076.
On to P60Y, for which the abundance fitness is 0.043 ± 0.14.
The same measure, in the same setting: with P60E the figure was 0.064 ± 0.059; with P60A, 0.147 ± 0.066; with P60M, 0.084 ± 0.068.
As for P60C, the abundance fitness is -0.221 ± 0.2.
Turning to P6W, the abundance fitness was -1.01 ± 0.37.
Consider P6S, for which the abundance fitness is -0.233 ± 0.24.
Same read-out and setting: with L34C the figure was -0.644 ± 0.13; with V12Y, 0.019 ± 0.086.
Still for that read-out and setting: to V12E belongs -0.066 ± 0.033; to L61A, -0.168 ± 0.072; to D23C, -0.908 ± 0.26.
The same measure, in the same setting: with D23F the figure was -0.056 ± 0.12; with D23G, -0.388 ± 0.038; with I45C, -0.458 ± 0.2.
On to G63Y, for which the abundance fitness was -0.376 ± 0.14.
Consider M19W, for which the abundance fitness was -0.053 ± 0.05.
In the case of M19P, the abundance fitness was -0.778 ± 0.1.
Regarding V51M, the abundance fitness came out at 0.093 ± 0.07.
Still for that read-out and setting: to V51R belongs -0.002 ± 0.042.
On to V31L, for which the abundance fitness is 0.005 ± 0.046.
For the variant V31Y, the abundance fitness was -0.278 ± 0.15.

Source of the values: the Human Domainome abundance scans (Beltran et al. 2025).
